Test results from IntAct's records for PubMed 22579247.

B1: Abscisic acid receptor PYL3 (Arabidopsis thaliana (Mouse-ear cress)), Q9SSM7 (parent)
chain: MNLAPIHDPSSSSTTTTSSSTPYGLTKDEFSTLDSIIRTHHTFPRSPNTCTSLIAHRVDAPAHAIWRFVRDFANPNKYKHFIKSCTIRVNGNGIKEIKVGTIREVSVVSGLPASTSVEILEVLDEEKRILSFRVLGGEHRLNNYRSVTSVNEFVVLEKDKKKRVYSVVLESYIVDIPQGNTEEDTRMFVDTVVKSNLQNLAVISTASPT

Variants of: B1
Conditions: with HAB1, Q9CAJ0

effect of a mutation on the interaction | Variant
increasing interaction strength | MNLAPIHDPSSSSTTTTSSSTPYGLTKDEFSTLDSIIRTHHTFPRSPNTCTSLIAHRVDAPAHAIWRFVRDFANPNKYKHFIKSCTIRVNGNGIKEIKVGTIREVSVVSGLPASTSVEILEVLDEEKRILSFRVLGGEHRLNNYRSVTSVNEFVVLEKDKKKRVYSVVLESYIVDIPQGNTEEDTRMFVDTVVKLNLQNLAVISTASPT [S195L]
increasing interaction strength | MNLAPIHDPSSSSTTTTSSSTPYGLTKDEFSTLDSIIRTHHTFPRSPNTCTSLIAHRVDAPAHAIWRFVRDFANPNKYKHAIKSCTIRVNGNGIKEIKVGTIREVSVVSGLPASTSVEILEVLDEEKRILSFRVLGGEHRLNNYRSVTSVNEFVVLEKDKKKRVYSVVLESYIVDIPQGNTEEDTRMFVDTVVKSNLQNLAAASTASPT [F81A;V202A;I203A]
